Test: soluble fraction after stress (log2 fold change); higher = more stays soluble; pooled small domains, quantitative proteomics
Conditions: stress: 50 degC
In short: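 Quantitative proteomics served as the high-throughput read-out for pooled custom libraries of small protein domains. Each was stressed at 50°C. Aggregation propensity is expressed as the base-two log fold change in soluble protein after stress. A higher value means a larger share of the protein remains in solution.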

Sequence | soluble fraction (log2)
HMWSLLVILQLREGGQRFSQLQRAIPDISQRMLTQTLRKLERDGLVSRKVTPSTPPRVDYAITELGH | -1.04
HMGEVVRAPMPGNVLKMEVAQGQEVEEGDLLLVLEAMKMENDIVAPKGGIVIQLVVDKGMVVETDDPLVVI | 0.0323
HMYYTAPDGRKREILDAALRLIAAGGPDSLTYRRVADEAGVPLGSLTYYFEAREDLIREAFRLYIAEASR | -3.04
HMSKSIGEALKEERRSLGLTQEQFIKGIISESFYSKVERGKNEIVAVDLLKILAANNISEEEFLSKLN | -0.58
HMTEFDVIMKSFGSEKIKVIKEVRAITGLGLAEAKALVEGVPAKIKEQVSKDDAEALKKQLEAVGAEVEL | 0.0379
HMFIRINQTQNSPRKSVQIVESKRDGHKVRTKILRHVGIAMDDVELQKLKSLAQDIIAKMTVETENASKQ | -0.00422
HMGKSDEIFIQKSALYEELGQPDRALEMIYSALKSDSLNIDVLHRLVTLLINQNKNEDAILYNQKIID | -0.193
HMLMKKTITHEIELLEFLKQIFPQSSTNKLRKMLSNGRIKINSEIVHKAKYKLQENDTFELLDNPT | -0.488
HMTLSAPMPGTVLKIHVKEGQRVRKGQTLVVLEAMKMEHRIQAPKAGEVTNLHFSEGDRVDMGEILVEIG | 0.0894
HMQSTEQVSVTVTIPPGGELRIDSDTFRVLLNGENVLDKQSGDWLMLSRDLLYLDIESAIGNGLSGNLIYT | 0.0974
HMGMSENIDKVAGGIPYKVEGNKAIINEPLDDATKERLMGKAKEHGYHAAPNQAGGITITLK | 0.134
HMGQMGHAVVAKTDLAVGTPLTRDLVAVREVPVEWLHSSAITPEQFERAAGAVLAQPARGGEPLVWSQLEE | 0.0906
HMHNQIGDKIRELRTRSNLTQADLGKLVGVSMQAVSKWERGGTPDIDVLLSVAKYFNISLDEMVGRT | -1.08
HMPRDYYAVLEVSVSSTPVQIRQAYQRLARRYSPDVNFLDRDTEALFEEIVEAYRVLSNPTARTLYDRG | -4.48
HMRYEESVTLGERLLNQSLVALKADNIDDALWERFLREEAGEKSRQEILSDIGLGKRLPVVVAKRLLAPS | 0.0281
HMNEKLNEYLNQVKAYLNTSDNKEDIIKELEAVVLEKAEKKYGQITDESISKILSEFGSPAEVAKEYS | 0.129
HMGAPLAVGDSVRVVVSGPRAFVYTAPNGALSGAVRNGAAFTVLELSPDNTWARIGSGEWIKVEFLATG | 0.0428
HMDIGNKIKELRTEQKMTQSDLAERLGVTKSSISSYENGSRLPSYDILLKIARIFKVSTDILLG | 0.514
HMDFNNQLKRIRESNGLTQEQLAKILNVSRQSISSWEVGRNFPDLEMIVIISKEFNISLDQLIMG | -2.82
HMDELNFGNFEGTRIFVQRTARKKSIALSIRDGTIVILAPRHIPNQEIQELITTNTDWIRAKLSQHAETKR | -1.75
HMRRHLLEMNDAIGRLGRLISEDPADRDVAEVIWAALRGMVMGQMIMNEPIDWQRERRTLVEMAIGR | 0.0146
HMNKIENLSQTILNILRKDHSQAFNYKQIAAKLQLDDPSSRNQIVKKLKDLQGKGTIQEIERGKYILTP | 0.358
HMEEKWKENYEKIKLFISINNRYPSVYSEDKEEGLIGSFMSNQKRRKNKLSKEKMALFEALPNWIWE | -1.72
HMNKYYQQLLQADPTGFIDPFKDLGTYDSRLNTFKEPVSELLNPFSGRPYSKIWQKRIETMREIFISYIKS | -2.86
HMDAIDQDGNHMTFKRWGEQLQEAFQALEAYDTDKAKTILNELIKFPIDSDLNNALKGILSNIDEMMA | -0.447

Sequence | soluble fraction (log2)
HMLDDESLHFFYKKDGWEYWMKTTTENNYPIQLRKKIGDEKVQEYWNGDKEKKKIGASYFGV | -0.391
HMLLGPDALTNRELDVLALLERRLSNKEIGALLYISPRTVKRHTINIYQKLHVNNRRAAVAQAKALGLMPD | -1.79
HMGNTMIVILKHEARQEQIDRLKQFLLGMGLRIDESKGENSTILGLVGDTTRVDADLISSLDAVEAVRRV | -0.0449
HMSHANAALTPRARLRLAKLIVEEHWPVATAAKMFMVSPPTARKWATRFRAEGPAGMADRSSRP | -1.46
HMWSGEPFLDELRHADTLLETDPEAALAEYRALADKGSAAAMMALGNAYASGSHVARDEGEAEHWYRRAA | 0.0547
HMGTTIAMSKLKQVLRWKEEGYSNRKIAQLVGLNKETVNNYISRANADSLSQKELLQLDDFVLDIRLRG | -1.32
HMSKSPELMEKIKEFAEGYFRENGETPSNKTIAGAMGMGRSTVYYYLVDMAQRGMISYENGVISTEKIRKL | -1.32
HMKGAADPAIKQKVLDYLDTVEKAKSKEIAKAISEEKSAVDLAVKELAFEDKVEYLYITTTFVALKGKVA | -0.168
HMSSEPYISLPRGAAHDAYPLSTKAVAAQLGMSEVWLANLRSKGKGPRYVRVGTRVFYSPEDVAQWRRAT | -0.889
HMSMRILNHTVVKILKRYRIATDEQLQPLLDEAERSGRSLQDVVLDAKLVSETELTKLFADYAD | -0.0864
HMALALSGVDLNRNRLTISWQTSKGVSYRVQRSSDLQSWTDVGAERLGNGNRLSHTQALNTESAFLRVII | -0.0897
HMRPTVNETQIREVFRSILGREVDPEGLRHYLGQAAKGWSIDQIRADVNNSQEAHQRRAELARQAEELK | 0.181
HMNAEWMFDARKIPGLVMNYLRRIAVRAIEEKHYSPELVADLFGIDRTSIYDWLRKYRQQGEEALDTRKA | 0.012
HMDAPHPSVVQVYFESRDRSWTYYNDRFDLHEGDLVYVEGKLEGVRGRVVEVSYNFRIKLADYKRVIAVA | -3.66
HMQEGPGLVPDFRGQTMREVLRGGQSLGVRVAVDGTGLAVAQTPEPGSPLNKVSQVTVSFRPP | 0.0873
HMLAKNDSGLNNHTFNAIRDALLEALADGPAEAKKLTENISFPSDKIITVIRFLADHDDRFSLEDGILSLT | -0.515
HMKSNIGENIRQLREKREMSVERVARMLEVKPATVIGWESGRELPEPAELGLLAKLFDVTVEELN | 0.106
HMDIYKKFIIPATYFGSRLDHVLSELLPELSRSKIQNMIKQNLVMINGNHAAQKQKVVGDEEIIIKDI | -0.0556
HMARGATELPYSQLLDRVEAGEITTATTQGNTLLSTARDGKRYITYLPLDTMDEVVPRLDAANVEVKTER | 0.0506
HMSVLVLPMLKELTHEDREVVELFYLNDMSVREIALIISVPIGTVKSRLHRARAQLKHQIVNLNQ | -3.03
HMGTGADQVSWKTGDKVTHKKWGEGTVVKVSGSGNDKELDIAFPQQGVKRLLASFAPIKKVT | 0.168
HMRGESFSTLVSILQEMSARKAAQVLNGLSEGLAVEVLRALPSDVAGDILGRMDAAKAAALMEQLST | -0.17
HMSYLELENLAEDIKATYDNLSTDLREVFRLSDIEGLSYEEISNKMNIPIGTVRSRLHRARETLLRIFNN | -0.933
HMLLNSLIDTLAAEKATVVPGTEVFKLYDTYGFPWELTEEIASERGFTIDHEGFEAAMKEQRERAREARV | -0.0257
HMGDGRVGVITASIAYEYAKEVFPEGTSFLKLGLTFPLPMDLIRDFASKVEKLYVIEELEPL | -0.215

Sequence | soluble fraction (log2)
HMNEFSYLSELGSEKGDLIKGLQLVQSREGYVSDDAIRAISKHFSIAEAEVEGVLTFYAQFK | -0.572
HMNSEPKTKLQEIAQERGLAAPVYETTHTGPDHDRIFSASVTVGDVVAAGEARSRKGAESEAAIAAIKALG | 0.212
HMITDQQKEQLSSLLKQAEAALAKAAANDQVLAAHKDEAVELLKSTSATSADAADLINELTELLKPYQ | 0.352
HMLPDLQESIDELLNIVDQRLNTSFEELVSGVNTTEKAIAFFLALLETIKWGFIKAEQTNNENKINIEKNY | 0.0699
HMDTRKEREIALYEAALRLIASGVNPAAMKVQQIADEAGIGKGTVYEYFASKEEILHGMALH | -0.241
HMEEKKYEVGDVVSFNYLYKNSFAEGKVSSLIHSGTITRIIDGRPAPYLINRGTGWLSNDLILT | -0.958
HMIANNFDEFVEKVSEAERKALNMPAGQEMTQKLLEMKLAANPNLTPEEWQRTKSEFMTFLFAVFVRE | -0.842
HMDRMIPPYGLEVTYDKTTHIIFPSAVRYVDLGSPNLIAGKADGSENVIRVKATRKNFREETNMSVITE | -0.043
HMSNSWSYSEFMKAVESGQVESVTISGQSIKGTSRGGQAFESVLPAFDDKLMDTLLVNDVEVIGEKP | -0.00195
HMDETFTITFDPNGGTLNGSKTKTVSLGDIVYGKLPTASKTGYSFIGWFTEKEGGEQISSATKIIASDLTL | 0.0253
HMLKASEVLPYVFTDKFFIDDLNLKQDQILGFLEYIDSKLPSQKLLQVSQQFQLIDFLINESKNYKNQ | -0.382
HMSSTSISFNDFQKYWLSNDIKSFQLREDKMTVQGSLKNGTAYETVVPSERLFQFIGQHPKD | 0.368
HMGTTTGKVNATGVNFRTGPSTSYSSMGKLGIDTAVTILGKSGDWYQVKVNSTGKTGYVFAKYITITSVV | -0.0946
HMSAGPQGRTPREDELTVGTKVYVSRVGASGVVSSDVSRGKVVVQVGALRLTAAVSELLLLDG | 0.151
HMTSVMAWRLITPIPQHGIIRSSQVQLQKHAPNSLKFLDVDSSPVGKQVKHGIAAGHWLSKDDFTE | -0.937
HMQRYVVDENLKLDKKDINHIINVMRLNVNDQIKLINNGTIYDAIITKIEKNNVLYEIIKKEESK | 0.0274
HMRDSLVGLEGVVVREVDDETLAGKVQIGSMEWSARSESGRIPAGRRVVVLRAEGVHIVVKEV | -0.205
HMRREKVLIKLAENLASKVLRTKKSIELEPMTPYERKVIHTTIENISGVKSWSEGENLQRHLIVALDE | -1.3
HMTLPELTDRELQILQLLSVGNSSQKIAKQLNISTHTVSTHRKQLLRKLGAQNGADLIRRAQKLGIL | -0.44
HMRKPDLTSVRTLIRSVSKLARHLKISPNGIYRWISVNRIPGAHVVKVANYYDVEIRDLVHLTGSD | -1.39
HMTVADMQQKANVKRRNSNSHEAILDATVKLLGSSGYIDFSIEKVASQAGVGKQTIYRWWPSRADLVLEVW | -0.109
HMALKSYEDMVGKTGVAYTVLRPSGKVIINDELFDATARSGMIEKGNEVIIYDYKNAQLIVEK | 0.0774
HMITNMIIIMKPNASEEAIEKVKHLIESKGLQAHLSKGDEVTIVGVVGDKTRLHDSNIEISEGVDKIVNVT | 0.317
HMRGPVRLDLPVSGLSRSSGPALAKILQAVPGVHKAHVNVRSGKATLEYDPARAKVTDFVEVIRSAGFGT | -0.0414
HMNTLLYAPKVSPNPFTPNADGINDVVNISYKLLRVISAVPISVEVFDLSGRLIKTLYSGVDPLGEY | 0.158
